Reference: PMC3727329, “Combining crystallography and EPR: crystal and solution structures of the multidomain cochaperone DnaJ” (Acta Crystallographica Section D: Biological Crystallography, 2013)

Molecular target: the molecule itself
Test: crystal structure; SeMet-DnaJ_(Δ108–114/4M), SeMet-SAD phasing, 2.9 Å; two dimers in the asymmetric unit; crystals from 14–16% PEG 6000, 0.1 M succinate/BTP pH 7.0 with adenine nucleotides

B1: SeMet-DnaJ_(Δ108–114/4M), Thermus thermophilus DnaJ lacking residues 108–114 with four residues substituted by methionine (natural protein, UniProt Q56237 1-280, looked up)
chain: MAAKKDYYAILGVPRNATQEEIKRAYKRLARQYHPDVNKSPEAEEKFKEINEAYAVMSDPEKRRIYDTYGTTEAPPPPPPGGYDFSGFDVEDFSEFFQELFGPGLFGKGRDLRAELPLTLEEAFHGGERVVEVAGRRVSVRMPPGVREGSVIRVPGMGGQGNPPGDLLLVVRMLPHPVFRLEGQDLYATLDVPAPIAVVGGKVRAMTLEGPVEVAVPPRTQAGRKMRLKGKGFPGPAGRGDLYLEVRITIPERLTPEEEALWKKLAEAYYARA
modifications: selenomethionine in place of methionine
notes: DnaJ (type II DnaJ, Hsp40 homologue) of Thermus thermophilus with J, GF and C-terminal domains; chains A-D of the model hold residues 2-272; Cloned NcoI/NotI into pET24d; also called DnaJ_(108114/4M); source: E. coli BL21(DE3) in minimal medium with L-selenomethionine, purified (heat denaturation, Ni-NTA, Superdex 200)
- binding result: binds
